For data set [1], the system named is E6N2 (anti-EGFR Fn3 clone E6 - mouse IgG2a Fc - PKR dsRBD) C121V,C135V (Homo sapiens). Description: flow.
The target of data set [2] is epidermal growth factor receptor (EGFR) on human cancer cell lines (human, UniProt P00533 25-1210).

Here are results for two molecules from patent US20150174265A1 (MIT, published 2015).

As to “AllStars Negative Control siRNA, Alexa 488 labeled”, in data set [1], the Kd stood at 3.5 nM and the binding signal is above 100 fold.

B1: E6N2 (Fc fusion)
chain: VSDVPRDLEVVAATPTSLLISWFDYAVTYYRITYGETGGNSPVQEFTVPGWISTATISGLKPGVDYTITVYAVTDNSRWPFRSTPISINYRTEIDKPSQ
In the case of B1, the Kd in data set [2] was around 2.1 nM.
